Assay results published in patent US20110318827A1 (COMMISSARIAT A L ENERGIE ATOMIQUE ET AUX ENERGIES …, published 2011).
Bridge positions count the residues as written; N and C are the ends. Square brackets hold non-standard residues; d marks the D form. Ends that are not written are not given here.

B1: HTGRRRGG-RC-121 (peptide)
peptide: TGRRRGGFCYWKVCT
HELM: PEPTIDE1{T.G.R.R.R.G.G.[dF].C.Y.[dW].K.V.C.T.[am]}$PEPTIDE1,PEPTIDE1,9:R3-14:R3$$$V2.0
SMILES: CC(C)[C@@H]1NC(=O)[C@H](CCCCN)NC(=O)[C@@H](Cc2c[nH]c3ccccc23)NC(=O)[C@H](Cc2ccc(O)cc2)NC(=O)[C@@H](NC(=O)[C@@H](Cc2ccccc2)NC(=O)CNC(=O)CNC(=O)[C@H](CCCNC(=N)N)NC(=O)[C@H](CCCNC(=N)N)NC(=O)[C@H](CCCNC(=N)N)NC(=O)CNC(=O)[C@@H](N)[C@@H](C)O)CSSC[C@@H](C(=O)N[C@H](C(N)=O)[C@@H](C)O)NC1=O
notes: not complexed with Tc
B2: TcO[HTGRRRGG-RC-121] (peptide)
peptide: TGRRRGGFCYWKVCT
modifications: [TcO]3+ core chelated by the N-terminal HTGRRR tag; free N-terminus; the RC-121 part carries D-Phe, D-Trp, a C-terminal amide and the preserved disulfide bridge
B3: RC-121 (peptide)
peptide: [dF]CY[dW]KVCT-NH2
modifications: disulfide 2-7
notes: Cyclic octapeptide somatostatin analog, made by solid phase synthesis

How the values were obtained:
[1] = molecular target: T1, somatostatin receptor SST-2 (CHO-SST-2 (mb)) (Homo sapiens (Human), UniProt P30874 1-369); experiment: radioligand competition binding, CHO-SST-2 (mb)
T1 construct: Printed as 'CHO-SST-2 (mb)'; also called SST-2 receptor

[2] = molecular target: T2, Somatostatin receptor subtype 2 (SST-2) on rat pancreatic carcinoma AR4-2J cells (rat, UniProt P30680 1-369); experiment: competition with [125I]-[Tyr1]-somatostatin on AR4-2J cell suspension, filtration, Cheng-Prusoff
T2 construct: whole, on cells; Whole-cell suspension; the cells express predominantly, not only, SST-2; also called AR2-2J cells
Protocol: (§1) The cells were grown in tissue culture dishes (Falcon) which were incubated at 37° C. in an atmosphere of 5% CO₂ and 95% humidified air in DMEM medium with 4.5 g/l glucose supplemented with 1% L-glutamine, 20% foetal calf serum, 1% penicillin/streptomycin and amphotericin B (1 μg/mL). Subculturing was performed with a trypsin/EDTA (0.05%/0.02% w/v) solution. All products were purchased from Sigma (Saint-Quentin Fallavier; France). At 100% confluence, the medium was removed and the cells were harvested using Versen buffer (PBS+5 mM EDTA), washed with ice-cold phosphate buffer and finally centrifuged at 1000 g for 7 min (4° C.). The pellet was suspended in ice-cold buffer (10 mM MgCl₂, 0.25% BSA, 50 mM HEPES pH7.5, 1% protease inhibitor cocktail (Sigma) and cells suspension was stored in ice before binding experiments.
(§2) All binding experiments for AR4-2J cells were done at 37° C. in 10 mM MgCl₂, 0.25% BSA, 50 mM HEPES pH7.5, 1% protease inhibitor cocktail (Sigma). […] Non-specific binding was determined in the presence of 5 μM somatostatin-28. Incubation was terminated by addition of ice-cold washing buffer (Tris 10 mM pH7.2) and rapid filtration over Whatman GF/C glass fiber filters pre-soaked in 0.5% polyethylenimine. The filters activity was measured in a Cobra gamma counter. Each experiment has been performed in duplicates at least two times.

[3] = molecular target: somatostatin receptor SST-1 (CHO-SST-1 (mb)) (Homo sapiens (Human), UniProt P30872 1-391); experiment: radioligand competition binding, CHO-SST-1 (mb)
[4] = molecular target: somatostatin receptor SST-3 (CHO-SST-3 (mb)) (Homo sapiens (Human), UniProt P32745 1-418); experiment: radioligand competition binding, CHO-SST-3 (mb)
[5] = molecular target: somatostatin receptor SST-5 (CHO-SST-5 (mb)) (Homo sapiens (Human), UniProt P35346 1-364); experiment: radioligand competition binding, CHO-SST-5 (mb)
[6] = molecular target: T2, Somatostatin receptor subtype 2 (SST-2) …; experiment: competition with [125I]-[Tyr1]-somatostatin on AR4-2J cell suspension
Protocol: as §1, §2

T2 sequence (P30680 whole entry): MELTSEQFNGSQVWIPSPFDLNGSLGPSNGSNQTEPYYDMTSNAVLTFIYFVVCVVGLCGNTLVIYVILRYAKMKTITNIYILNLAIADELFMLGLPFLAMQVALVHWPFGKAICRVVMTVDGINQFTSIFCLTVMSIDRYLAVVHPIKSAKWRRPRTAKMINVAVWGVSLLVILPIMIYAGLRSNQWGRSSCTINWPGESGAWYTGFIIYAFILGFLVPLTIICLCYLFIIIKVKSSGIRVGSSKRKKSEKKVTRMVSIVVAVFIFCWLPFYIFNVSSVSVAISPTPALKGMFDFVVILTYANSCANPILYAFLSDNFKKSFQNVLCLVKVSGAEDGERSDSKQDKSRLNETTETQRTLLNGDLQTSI
T1 sequence (P30874 whole entry, form in doubt): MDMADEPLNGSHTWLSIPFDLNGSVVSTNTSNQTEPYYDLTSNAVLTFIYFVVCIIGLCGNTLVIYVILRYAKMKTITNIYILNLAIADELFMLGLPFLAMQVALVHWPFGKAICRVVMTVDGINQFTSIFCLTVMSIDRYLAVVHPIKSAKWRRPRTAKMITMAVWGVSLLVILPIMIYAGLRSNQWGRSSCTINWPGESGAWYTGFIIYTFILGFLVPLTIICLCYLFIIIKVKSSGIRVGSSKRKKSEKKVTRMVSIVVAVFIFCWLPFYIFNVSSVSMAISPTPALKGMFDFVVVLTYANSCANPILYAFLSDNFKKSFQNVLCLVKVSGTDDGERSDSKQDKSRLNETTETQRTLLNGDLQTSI
somatostatin receptor SST-5 (CHO-SST-5 (mb)), sequence (P35346 whole entry, form in doubt): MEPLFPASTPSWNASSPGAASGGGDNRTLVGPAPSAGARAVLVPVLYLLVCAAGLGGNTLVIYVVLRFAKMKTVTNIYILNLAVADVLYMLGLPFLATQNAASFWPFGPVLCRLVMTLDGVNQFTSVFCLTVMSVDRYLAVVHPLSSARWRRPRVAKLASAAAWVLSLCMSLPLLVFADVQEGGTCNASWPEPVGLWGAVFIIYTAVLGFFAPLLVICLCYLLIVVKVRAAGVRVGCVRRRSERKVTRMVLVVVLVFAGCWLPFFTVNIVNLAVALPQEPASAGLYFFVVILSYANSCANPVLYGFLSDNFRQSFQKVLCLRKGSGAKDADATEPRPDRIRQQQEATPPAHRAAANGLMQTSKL
somatostatin receptor SST-3 (CHO-SST-3 (mb)), sequence (P32745 whole entry, form in doubt): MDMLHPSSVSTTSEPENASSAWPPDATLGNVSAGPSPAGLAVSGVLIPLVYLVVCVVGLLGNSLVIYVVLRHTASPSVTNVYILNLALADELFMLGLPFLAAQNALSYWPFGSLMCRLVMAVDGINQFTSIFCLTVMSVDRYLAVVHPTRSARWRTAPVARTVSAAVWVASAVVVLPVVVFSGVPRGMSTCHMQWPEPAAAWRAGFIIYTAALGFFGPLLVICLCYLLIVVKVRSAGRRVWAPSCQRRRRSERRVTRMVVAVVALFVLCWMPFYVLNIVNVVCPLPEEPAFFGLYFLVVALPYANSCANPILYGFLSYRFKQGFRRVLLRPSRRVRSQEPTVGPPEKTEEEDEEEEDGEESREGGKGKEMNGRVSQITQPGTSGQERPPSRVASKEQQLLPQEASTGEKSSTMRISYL
somatostatin receptor SST-1 (CHO-SST-1 (mb)), sequence (P30872 whole entry, form in doubt): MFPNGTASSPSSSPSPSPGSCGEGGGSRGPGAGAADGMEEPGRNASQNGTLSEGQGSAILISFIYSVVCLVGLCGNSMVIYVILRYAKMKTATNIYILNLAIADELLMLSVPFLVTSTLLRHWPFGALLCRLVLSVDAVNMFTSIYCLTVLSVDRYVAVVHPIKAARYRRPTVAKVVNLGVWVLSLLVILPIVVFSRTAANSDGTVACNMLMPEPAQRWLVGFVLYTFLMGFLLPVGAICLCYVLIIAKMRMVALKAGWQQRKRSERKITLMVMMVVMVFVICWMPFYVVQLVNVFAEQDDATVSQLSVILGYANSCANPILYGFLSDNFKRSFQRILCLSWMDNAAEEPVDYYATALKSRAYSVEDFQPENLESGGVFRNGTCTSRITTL

Row | Binder | Ki [1] [nM] | Ki [2] [nM] | Ki [3] [nM] | Ki [4] [nM] | Ki [5] [nM] | Kd [6] [nM]
1 | B1 | 0.02 | 0.035 | – | – | – | –
2 | B2 | 0.02 | 0.066 | 58 | 10 | 30 | 0.06
3 | B3 | – | 0.3 | – | – | – | –
